Assay results as given in the nanobody polyreactivity screen of Harvey et al. (2022).

Assay: yeast display, Sf9 membrane polyspecificity reagent, FACS + sequencing; frameworks hold sequencing errors
Outline: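 Nanobodies from a synthetic yeast display library (Saccharomyces cerevisiae BJ5465), induced 36–48 hours with galactose, were stained 1 hour at 4 °C with 10% biotinylated, detergent-solubilized Sf9 membrane reagent, enriched on streptavidin microbeads, then FACS-sorted. Anti-HA (expression) and streptavidin (reagent binding) fluorescence set low and high (top ~1%) gates. Polyreactivity labels come from the gate of origin. Genes were colony-PCR amplified, MiSeq 2 × 250 sequenced and filtered by CDR length.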

Sequence | polyreactivity (PSR sort gate)
QVQLVESGGGLVQAGGSLRLSCAASGRSIYRNAMGWYRQAPGKERELVAAISGRGGGTYYADSVKGRFTLSRDNAKNTVYLQMNSVKPEETAVYYCAAERKNKYDYWGQGTQVTVSS | high polyreactivity
QVQLVESGGGLVQAGGSLRLSCAASGRTALRNAMGWYRQAPGKEREFVADIRWSGGSTYYADSVKGRFTISRDKAKNTVYLQMNSQKPEDTAVYYCAAGYVRYPYWYYYWGQGTQVTVSS | high polyreactivity
QVQLVESGGGLVQAGGSLRLSCAASGRTCGKYAMGWYRQAPGKERELVATISRSGGSTYYADSVKGRFTISRDTAKYTVYLQMNSLKPEDTAVYYCNAVTSRYIWPPVLDRYHYWGQGTQVTLSS | high polyreactivity
QVQLVESGGGLVQAGGSLRLSCAASGRTDNTNAMGWYRQAPGKERELVAAITRSGDSTYYADSVKGRFTISRDNAKNTVYLQMNSLKPEDTAVYYCAAYSRTLYPDRYYWGQGTQVTVSS | high polyreactivity
QVQLVESGGGLVQAGGSLRLSCAASGRTDRTNAMGWYRQAPGKERELVAAISTGGGITNYADSVKGRITISRDNAKNTVYLQMNSLKPEDTAVYYCNADIYTWFQIGGYQYDYWGQGTHVTVSS | low polyreactivity
QVQLVESGGGLVQAGGSLRLSCAASGRTFAAYDMGWYRQAPGKERELVAAITSGGSTNYADSVKGRFTISRDNAKNTVYLQMNSLKPEDTAVYYCNARFRKWPQARYGVRYYYWGQGTQVTVSS | high polyreactivity
QVQLVESGGGLVQAGGSLRLSCAASGRTFADFTMGWYRQAPGKERELVAAISFSGGSTYYADSVKGRFTISRDNAKNTVYLHMNSLKPEDTAVYYCAAGHKRRAPRYYDWGQGTQVTVSS | high polyreactivity
QVQLVESGGGLVQAGGSLRLSCAASGRTFADYVMGWYRQAPGKERELVAAITSSGGSTYYADSVKGRFTISRDNAKNTVYLQMNSLKPEDTAVYYCAAQQSPSVDYWGQGTQVTVSS | low polyreactivity
QVQLVESGGGLVQAGGSLRLSCAASGRTFAGYVMGWYRQAPGKERELVAAISTSGGSTYYADSVKGRFTISRDNAKNTVYLQMNSLKPEDTAVYYCNVYLKHRYYNQMDYWGQGTQVTVSS | high polyreactivity
QVQLVESGGGLVQAGGSLRLSCAASGRTFALNVMGWYRQAPGKERELVAAISRSGGSTYYADSVTGRFTISRDNAKNTVYFQMNSLKPEDTAVYYGAAATHYQSYNRRDYWGEGTQVTVSS | high polyreactivity
QVQLVESGGGLVQAGGSLRLSCAASGRTFALYALGRYRQAPGKERELVASISWRGGSTYYADSVKGRFTISRDNANNTVYVQMNRLKPEDTAVSYCAADTGSYGPLIYRLEYWGQGTQVNVSS | low polyreactivity
QVQLVESGGGLVQAGGSLRLSCAASGRTFALYTMGWYRQAPGKVRELVAAINWSGTSTYYADSVKGRFTISRDNAKNTVYLQMNSLKPEDTAVYYCNRDPRKYGKLDYWGQGTQVTVSS | low polyreactivity
QVQLVESGGGLVQAGGSLRLSCAASGRTFANNAMGSYRPAPGKAREWVASISITTSTYYADSVKGRFTISRDNAKITVYLQLNSLKPEDTPVYYCAAYYFIHAGPWEFDYWGQGTQVTVSS | low polyreactivity
QVQLVESGGGLVQAGGSLRLSCAASGRTFANYAMGWYRQAPGKDRELVAAIYSGGNTYYEDSVKGRFTISRDNAKNTVFLQMNRLKPEDTAVYYCNSPWYYRYQRNEYGYWGQGTQVTVSS | high polyreactivity
QVQLVESGGGLVQAGGSLRLSCAASGRTFAPYAMGWYRQAPGKERELVAAISWSGGSTYYADSVKGRFTISRDNAKNSVYLQMNSLKPEDTAVYYCAVVVDYDADRYWGYDYWGQGTQVTVSS | high polyreactivity
QVQLVESGGGLVQAGGSLRLSCAASGRTFAQYAMGWYRQAPGKERELVAAISRSGGSTFYADSVKGRFTISRDNAKNTVYLQMNSLKPEDTAVYYCAAYNRQASLDYWGQGTQVTVSS | high polyreactivity
QVQLVESGGGLVQAGGSLRLSCAASGRTFARNAMGWYRHAPGKERELVAAISGSGGITYYADSVKGRFTISRDNAKNTVYLQMNSLKPEDTAVYYCNAGNNVVVDYDYWGQGTQVTVSS | low polyreactivity
QVQLVESGGGLVQAGGSLRLSCAASGRTFARYAMGWYRPAPGKERELVAAISSSGVSSYYADSVKGRFTISRDNAKNTVYLQMNSLKPDDTAVYYCVTYRNWWYDYWGQGTQVTVSS | high polyreactivity
QVQLVESGGGLVQAGGSLRLSCAASGRTFARYAMGWYRQAPGKERELVAAITRGGSTKYADSVKGRFTISRDNAKNTVYLQMNSLKPEDTAVYYCNKVIVQYTLDRGYWGQGTQVTVSS | high polyreactivity
QVQLVESGGGLVQAGGSLRLSCAASGRTFARYAMGWYRQAPGKERELVAVISRTGSTYYADSVKGRFTISRDNAKNTVYLQMNSLKPEDTAVYYCATVYYYLAYGWSYSDMDYWGQGTQVTVSS | high polyreactivity
QVQLVESGGGLVQAGGSLRLSCAASGRTFARYTMGWYSQAPVKERELVASITRGGSTYYADSVKGRFTISSDNAKNTVYLQMYSLKPEDTAVYYCNAVYIVGGDWGQGTQVTVSS | high polyreactivity

Sequence | polyreactivity (PSR sort gate)
QVQLVESGGGLVQAGGSLRLSCAASGRTFARYVMGWYRPAPGKERELVASISNSGGSTYYADSVKGRFTISRDNAKNTVYLQMNSQKPEDTAVSYCARRYYYWGQGTQVTVSS | high polyreactivity
QVQLVESGGGLVQAGGSLRLSCAASGRTFASNAMGWYRQAPGKERELVAAISYSGGRTYYADSVKGRFTISRDNAKNTVYLQMNSLKPEDTAVYYCAKVGPVYKYDYWGLGTQVTVSS | high polyreactivity
QVQLVESGGGLVQAGGSLRLSCAASGRTFASYAMGWYRQAPGKERELVASIRYSGGSTHYADSVKGRFTISRDNAKNPVYLQMNSLKPEDTAVYYCNARPKFRTYNYWGQGTQVTVSS | high polyreactivity
QVQLVESGGGLVQAGGSLRLSCAASGRTFASYVMGWYRQAPGKERELVAAIDWHTGSTYYADSVKGRFTISRDNAKNTVYLQMNSLKPEDTAVYYCAAVYFLYPEGYWQTLYEYYYWGQGTQVTVSS | low polyreactivity
QVQLVESGGGLVQAGGSLRLSCAASGRTFATYAMGWYRQAPGKERELVAAISSGGSTYYADSVKGRFTISRDNAKNTVYLQMNSLKPEDTAVYYCAVYVDYYGYGYWGQGTQVTVSS | high polyreactivity
QVQLVESGGGLVQAGGSLRLSCAASGRTFAVNAMGWYRQAPGKESELVAAISQRAGRTYYADSVKGRFTISRDNAKNTVYLQMNSLKPEDTAVYYCNVVGFRSRVGSRGYWGQGTQVTVSS | high polyreactivity
QVQLVESGGGLVQAGGSLRLSCAASGRTFAVYAMGWYRQAPGKERELVAAISGRGGNTYYADSVKGRFTISRDNAKNTVYFQMNSLKPEDTAVYYCAAKAYQSEYGYWGQGTQVTVSS | high polyreactivity
QVQLVESGGGLVQAGGSLRLSCAASGRTFAVYAMGWYRQATGKERELVAAISSGGSTYYADSVKGRFTISRDNAKNTVYLQMNSLKPEDTAVYYCTARWGYRRGYCGQGTQVTVSS | high polyreactivity
QVQLVESGGGLVQAGGSLRLSCAASGRTFAWKAMGWYRQAPGKERELVAAMSSRGTSTYYADSVKGRFTISRDNAKKTVYLQMNSLKPEDTAVYYCAKYTNPASGEYGYWGQGTQVTVSS | high polyreactivity
QVQLVESGGGLVQAGGSLRLSCAASGRTFAWYAMGWYRQAPGKERELVAAISSGGSTYYADSVKGRFTISRDNAKNTVYLQMNSLKPEDTAVYYCAAEWHYIYAYDSWGQGTQVTVSS | low polyreactivity
QVQLVESGGGLVQAGGSLRLSCAASGRTFAWYAMGWYRQAPGKERELVAAITTRGSGTYYADSVKGSFTISRDNAKNTVYLQMHSLKPEDTAVYYCAKDPITATTLDERVYYWGQGTQVTVSS | low polyreactivity
QVQLVESGGGLVQAGGSLRLSCAASGRTFAYNAKGWYRQPPGKERELVASITVGGGSTYYADSVKGRFTISRDNAKNTVYLQMNSLKPEDTAVYYCAARVPSWKYDYWGQGTQVTVSS | high polyreactivity
QVQLVESGGGLVQAGGSLRLSCAASGRTFAYNAMGWYRPAPGKERELVAAITGSGGRTYYADSVKGRFTISRDNAKNTVYLQMNSLKAEDTAVYYCAVGLPSRYDYWGQGTQVTVSS | low polyreactivity
QVQLVESGGGLVQAGGSLRLSCAASGRTFAYNAMGWYRQAPGKEREMVASITSGGSTNYADSVKGRFTISRDNAKNNVYLQINSLIPEDTAVYYCNIDGKYHLVLYDYWGQGTQVTVSS | low polyreactivity
QVQLVESGGGLVQAGGSLRLSCAASGRTFAYYAMGWYRQAPGKERELVAAIDSSGGSTYYADSVKGRFTISRDNAKNTVYLQMNSLKPEDTAVYYCAASYPYDRYDQGGYGYWGQGTQVTVSS | low polyreactivity
QVQLVESGGGLVQAGGSLRLSCAASGRTFAYYAMGWYRQAPGKERELVSTITWSDGSTYADSVKGRFTISRDNAKNTVYLQMNSLKPEDTAVYYCAAQGWSWYWYYFYLFDYWGQGTQVTVSS | high polyreactivity
QVQLVESGGGLVQAGGSLRLSCAASGRTFAYYTMGWYRQAPGKERELVDAISSRGGRTYYADSVKGRFTISRDNAKNTVYLQMNSLKPEDTAVYYCAAVSHGVYYQYRRRYYSWGQGTQVTVSS | high polyreactivity
QVQLVESGGGLVQAGGSLRLSCAASGRTFCRYAMGWYIQAPGKERELVASISVSGGGTYYADSVKGRFTISRDNAKNTVFLQMNSLKPQDTAVYYCAARPVYYRYRRDYWGQGTHVTVSS | high polyreactivity
QVQLVESGGGLVQAGGSLRLSCAASGRTFCTNAMGWYRQAPGKERELVAVISGSTGSTYYADSVKGRFTISRDNAKNTVYLQMNSLKPEDTAVYYCAASYRNTGRWSYRGDYWGQGTQVTVSS | high polyreactivity
QVQLVESGGGLVQAGGSLRLSCAASGRTFCTNAMGWYRQAPGTERELVAVISGSTGSTYYADSVKGRFTISRDNAKNTVYLQMNSLKPEDTAVYYCAASYRNTGRWSYRGDYWGQGTQVTVSS | high polyreactivity
